From US20060253917A1 (published 2006) come the findings set out here.

T1: OsS49462 aa 1-100 (Oryza sativa, UniProt Q01J96 179-278)
T1 construct: bait, Gal4 DBD fusion; also called PN20325; O. sativa Cyclin OsS49462, Fragment
T1 sequence: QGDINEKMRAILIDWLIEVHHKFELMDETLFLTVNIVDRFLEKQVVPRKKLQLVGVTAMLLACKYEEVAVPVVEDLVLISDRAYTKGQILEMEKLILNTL

T2: OsCHIB1 aa 10-200 (Oryza sativa)
T2 construct: bait, Gal4 DBD fusion; also called PN19651; O. sativa Chitinase, Class III
T2 chain: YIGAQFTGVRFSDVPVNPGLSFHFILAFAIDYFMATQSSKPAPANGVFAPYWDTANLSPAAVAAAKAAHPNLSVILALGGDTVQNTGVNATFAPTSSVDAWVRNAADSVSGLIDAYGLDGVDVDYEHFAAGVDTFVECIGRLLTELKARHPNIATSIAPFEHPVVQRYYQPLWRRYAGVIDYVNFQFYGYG

B1: OsORF020300-2233.2 aa 93-387 (other)
chain: LLVPYYLGEMTERVAQEDRIPVLKASQDHLKEFISICEALELISEDELELSRQKQPDTMANRRAQKAARFKRQKAAETKLLEIKERKERRRRSLRAAALSAPIEAGEEDAFEDDGEEEREAWLATISLALCKAFDLLDMLKKEEEMLLAVKERQAKDGNAFAREMLDERTKKAEAWHHNAANRAPYSKPADPITCATFAQDVIEGRASVSQAHEHKHQPLIFGPASLVGGGLTSERERMAAQVFQPSYRLPTMSIEEAGLREMKMMEKWQERTAKMIQESNSAWHKDGSRSAQED
notes: prey, AD fusion; also called PN21639; Hypothetical Protein ORF020300-2233.2, Putative PP2A Regulatory Subunit, Similar to OsCAA90866
B2: OsPN26645 aa 24-164 (other)
chain: PLPEACPVPTAAEEILGPGGTCTTLDRRGDPVGVIEGDEVTLAKAITLLHMNKDDYIAVLFYASWCPFSQECKPNFEILASLFPSIRHFAFEESSIRPSIISRYGIHGFPTLFLLNSTMRVRYHGPRTVKSLAAFYRDVSG
notes: prey, AD fusion; also called Novel Protein PN26645, Putative Protein Disulfide Isomerase-Related Protein Precursor
B3: OsPN23268 aa 12-200 (other)
chain: SEEEAEATLRLLLEEENEARIAAFLVLLRAKGETYEEIVGLAKAMIGCCVRVDGLDDAVDIVGTGGDGADTVNISTGSTILAAAAGAKVAKQGSRASSSACGSADGIKRCVNEVGVGFMMSANYHPAMKIVKPVRKKLKIKTVFNILGPLLNPARVPYAVIGVYHENIVTKMAKAAQKFGMKRALVVHS
notes: prey, AD fusion; also called Novel Protein 23268, Similar to Phosphoribosylanthranilate Transferase, Chloroplast Precursor, Fragment
B4: OsORF020300-2233.2 aa 118-388 (other)
chain: SQDHLKEFISICEALELISEDELELSRQKQPDTMANRRAQKAARFKRQKAAETKLLEIKERKERRRRSLRAAALSAPIEAGEEDAFEDDGEEEREAWLATISLALCKAFDLLDMLKKEEEMLLAVKERQAKDGNAFAREMLDERTKKAEAWHHNAANRAPYSKPADPITCATFAQDVIEGRASVSQAHEHKHQPLIFGPASLVGGGLTSERERMAAQVFQPSYRLPTMSIEEAGLREMKMMEKWQERTAKMIQESNSAWHKDGSRSAQEDE
notes: prey, AD fusion; also called PN21639
B5: OsAAK63900 aa 122-224 (other)
chain: AAVAGKTHYRSALCASVTICGPIKKKIIDHFHKKPVPPKPEPKPEPPKPKPEPEHPFLDHIHKKEKHFFDHFHKKPVPPKPEPKPEPKPQPAPEYHNPSPPAN
notes: prey, AD fusion; also called PN23266; O. sativa Putative Proline-Rich Protein AAK63900
B6: OsPN26539 aa 194-346 (other)
chain: TEIIGLKGRIDKKNAYLQELEDQFVGLQNLAQRNEQLYGSGNAPSGGVALPFILVQTRPHATVEVEISEDMQLVHFDFNSTPFELHDDSFVLKALGFSGKEPDDTQAWVGNGGECSTTPIYHQSPQVARPNGVRLPTSPPIPGILKGRVKHEH
notes: prey, AD fusion
B7: OsPN26539 aa 82-253 (other)
chain: GPGTRATGPDKGGRGLRQFSMKVCEKVESKGRTTYNEVADELVAEFADPNNNFASPDPDNPNTPQFDEKNIRRRVYDALNVLMAMDIISKDKKEIQWKGLPRTSMSDVEELKTEIIGLKGRIDKKNAYLQELEDQFVGLQNLAQRNEQLYGSGNAPSGGVALPFILVQTRPH
notes: prey, AD fusion
B8: Os018989-4003 aa 177-294 (other)
chain: NYRYEKIQKLEEVHKELITRIKNKKKLLQEIEKQFDDLQNITLRNQASQRPAESVNGILLPFLLIKTSRKARVEIEISEDSKFARFDFNGAPFTMHDDVSILEAIRRNKGRAGLSIHP
notes: prey, AD fusion; also called PN21044
B9: OsPN30852 aa 45-86 (other)
chain: RFEATTKSKLASLNEKLDILERKLEVLEVQVSSATTNPSVFN
modifications: not fully specified
notes: prey, AD fusion; also called Novel Protein PN30852
B10: OsPN26539 aa 66-346 (other)
chain: DDAPSSQPATSKKKKRGPGTRATGPDKGGRGLRQFSMKVCEKVESKGRTTYNEVADELVAEFADPNNNFASPDPDNPNTPQFDEKNIRRRVYDALNVLMAMDIISKDKKEIQWKGLPRTSMSDVEELKTEIIGLKGRIDKKNAYLQELEDQFVGLQNLAQRNEQLYGSGNAPSGGVALPFILVQTRPHATVEVEISEDMQLVHFDFNSTPFELHDDSFVLKALGFSGKEPDDTQAWVGNGGECSTTPIYHQSPQVARPNGVRLPTSPPIPGILKGRVKHEH
notes: prey, AD fusion; also called Novel Protein PN26539, Probable DP
B11: OsPN29957 aa 28-214 (other)
chain: EVSFSIRVAKGRGIFEKLGRLAKPRVLALTVKQSTKGEAAKAFLRVLKYSSGAVLEPAKLYKLKHLTKVEVISNDPSGCTFVLGFDNLRSQSVAPPQWTMRNIDDRNRLLFSILTMCKEILSYLPKVVGIDFVELALWAKENTVTLDNQSSTQDGQEKSVTTQTERKVTVTVENDLGSQAKDEEEDM
notes: prey, AD fusion
B12: OsPN29942 aa 11-182 (other)
chain: VDTSNEIKEIVIDDMEPKVFQAGFLFMYRDNLVGDDELSASSSDCSIFDTLAGKLLAAADRYELPRLRLLCESYLCKHISVNSVATTLALADRHHAMELKSVCLKFAAENLSAVIRTDGFDYLKDNCPALQSEILRTVAGCEEECSSGGKSQSVWGQLSDGGDTSGRRVRPR
notes: prey, AD fusion; also called Novel Protein PN29942, Fragment, zinc finger protein
B13: OsPN29957 aa 51-288 (other)
chain: PRVLALTVKQSTKGEAAKAFLRVLKYSSGAVLEPAKLYKLKHLTKVEVISNDPSGCTFVLGFDNLRSQSVAPPQWTMRNIDDRNRLLFSILTMCKEILSYLPKVVGIDFVELALWAKENTVTLDNQSSTQDGQEKSVTTQTERKVTVTVENDLGSQAKDEEEDMEALLDTYVMGIGEADAFSERLKQELVALEAANVYQLLQSEPLIDEVLQGLDAASATVDDMDEWLRIFNMKLRHM
notes: prey, AD fusion; also called Novel Protein PN29957, Fragment, unknown
B14: PN25358 aa 303-472 (other)
chain: VSASEFYSQSAIYVAAAHALKPNYSVYRSALRLVRSMLPLPYLKVGYLIAPPENSAIAPHKEWERSQFVLNHEELQQVNASDQPPSQSPGHVDSGRKLFRIVVADIVSVSACADLTLPPGAGLRIDTIHGPRFLVADNWETIDSWLDAIRLVYTIFARGRSDVLAGIITG
notes: prey, AD fusion; also called Hypothetical Protein AAK39589
B15: OsPN23484 aa 111-194 (other)
chain: GREDREREVQEELASLSDLAASYHSRLQSHGIDPDSFSDDGEEEQHDEEDGEEVEQIDTAALQTDGSSGGDSIGGMQVKAMVDD
notes: prey, AD fusion; also called Novel Protein PN23484, heavy meromyosin
B16: OsPN29041 aa 5-108 (other)
chain: VQIRRALRALVDDHTDGLMDFEDTEVRSSEETDALEEARLAIEQVVIPKGESVQLLPRPPSIIASQVDLVESFKLKWESIGQEPNACLRILPQFVGVEEGGKSV
notes: prey, AD fusion; also called Novel Protein PN29041, Fragment, Similar to A. thaliana Putative ATPase
B17: OsPN22020 aa 76-170 (other)
chain: ANATDGVKPLVGSARLPLRDVLADTGIGARASRSLRLKRPSGRPHGRLEVRVAVREPKRYYDPSPAYPAPYHQQTNRDPYAYGNTTTGGYGYAYG
notes: prey, AD fusion; also called Novel Protein PN22020, Fragment, Similar to A. thaliana Putative Protein
B18: OsPN22823 aa 25-106 (other)
chain: SSSGKKVPLFSLFRYADRLDVLLMVVGTVGALGNGISQPLMTVLFGNVINSFGANTSGSVLRSVTKVKVSCWTMAGERQSAR
notes: prey, AD fusion; also called Novel Protein PN22823, Similar to ABC Transporter Proteins

Ends that are not written are not given here.

The target in one assay is T3, OsPP2A-2 aa 1-308 (Oryza sativa, UniProt A2XN40 1-307).
T3 construct: bait, Gal4 DBD fusion; also called PN20254; O. sativa Serine/Threonine Protein Phosphatase PP2A-2, Catalytic Subunit
T3 sequence (A2XN40 whole entry, the tested form may be a part): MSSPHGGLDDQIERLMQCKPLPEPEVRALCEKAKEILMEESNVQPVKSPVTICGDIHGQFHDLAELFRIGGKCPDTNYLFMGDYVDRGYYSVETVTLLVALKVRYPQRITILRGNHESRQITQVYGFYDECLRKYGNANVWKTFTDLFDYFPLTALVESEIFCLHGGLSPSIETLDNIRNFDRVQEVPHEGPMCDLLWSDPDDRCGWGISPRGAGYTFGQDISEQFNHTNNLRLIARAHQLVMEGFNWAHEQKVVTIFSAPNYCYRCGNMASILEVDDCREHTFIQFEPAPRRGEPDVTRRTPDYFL
In words: Y2H; input trait library. Summed up: (§1)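 Protein-protein interactions were detected in an automated, high-throughput yeast two-hybrid assay from Myriad Genetics Inc. (Salt Lake City, Utah), with a bait clone encoding a defined amino-acid fragment of a rice protein screened against the input trait or output trait rice prey library. Interacting proteins were identified by BLAST comparison of the encoding sequences of retrieved prey clones against databases.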
Consider B1, for which the binding result is “binds”. As to B2, the binding result is recorded as “binds”. B3: the binding result is given as “binds”. For B4, the binding result is on record as “binds”. Regarding B5, the binding result is given as “binds”.

In the next assay the target is T4, OsE2F1 aa 100-250 (Oryza sativa).
T4 construct: bait, Gal4 DBD fusion; also called PN19758; O. sativa E2F Homolog
T4 sequence (chain, as listed by the source): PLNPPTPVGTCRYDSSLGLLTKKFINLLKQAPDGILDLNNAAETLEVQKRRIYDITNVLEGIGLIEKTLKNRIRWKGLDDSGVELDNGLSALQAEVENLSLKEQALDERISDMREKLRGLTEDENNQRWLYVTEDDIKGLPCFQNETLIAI
In words: Y2H; output trait library. Put shortly: as §1
Turning to B6, the binding result is “binds”. Regarding B7, the binding result is recorded as “binds”.

As to B8, the binding result is “binds”. With B9, the binding result is recorded as “binds”.

On to B10, for which the binding result is on record as “binds”.

The next assay concerns the target T1, OsS49462 aa 1-100. As to the kind of experiment: Y2H; output trait library. Summed up:
as §1
For the molecule B11, the binding result is “binds”.

Regarding B12, the binding result is “binds”. For B13, the binding result is listed as “binds”. On the same count and under the same terms, the entry for B14 is “binds”; for B15 it is “binds”.

For the next assay, the target named is T2, OsCHIB1 aa 10-200. As to the kind of experiment: Y2H; input trait library. Put shortly:
as §1
In the case of B16, the binding result is given as “binds”. As for B17, the binding result is “binds”. B18: the binding result is “binds”. For AVREPKRYYDPSPAYPAPYHQQTNRDPYAYGNTTTGGYGYAYG (other, not fully specified, prey, AD fusion) [OsPN22020 aa 128-170], the binding result is “binds”.
